According to US20260042834A1, “ANTI-CORTICOTROPIN-RELEASING HORMONE ANTIBODIES AND POLYCYSTIC OVARY SYNDROME” (HBM ALPHA THERAPEUTICS, INC., priority 2022, published 2026):
Positions count from the first letter of the chain named. One block for each molecule: values may come before it.

What was measured:
[1] = test system: human CRHR2; test: CRH-induced luciferase reporter blocking assay, CHO-CRE-hCRHR2 cells; format: cell-based; conditions: CHO-CRE-hCRHR2 cells, 0.1 nM CRH
Summary of the method: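 CHO-CRE reporter cells stably expressing mouse or human CRHR2 were treated with serially diluted antibodies (8 points, 1:4) plus CRH at final 5 nM (mCRHR2) or 0.1 nM (hCRHR2), 4-6 hours at 37° C. CRE-driven luciferase read by luminescence after 10 min with detection reagent.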

[2] = test system: constitutively high plasma ACTH in Mrap1 KO mice; test: Mrap1 KO mice constitutively high ACTH model; format: in vivo, mouse; conditions: for plasma ACTH concentrations in Mrap1 KO mice: single dose 20 mg/kg
Procedure: 8-10 week old wildtype female C57BL/6 mice were obtained from Charles River Laboratories. Mrap1 KO mice were obtained from Queen Mary University of London, UK. SSR125543A, a small molecule CRHR1 antagonist, was obtained from Axon Medchem (Cat #Axon 1799). Mouse Corticosterone (55-Corms-E01) and adrenocorticotropic hormone (ACTH) ELISA kits (21-ACTHU-E01) were obtained from ALPCO, USA. All procedures were carried out in accordance with the Guide for the Care and Use of Laboratory Animals of the National Institutes of Health. Protocols were approved by Charles River Laboratories Institutional Animal Care and Use Committee (IACUC).
To generate Mrap1 KO mice, Mrap1−/− male mice were bred with Mrap1+/− female mice. Corticosterone hormone replacement was performed by administering 50 μg/ml in drinking water to breeder cages when female mice were pregnant and their pregnancies palpable (approximately embryonic day 10). Drinking water was changed weekly, and treatment was stopped at weaning. Mice were uniquely identified with ear tags at the time of tail clipping to match future genotype with each mouse. DNA was extracted from tail tissue and used to genotype mice.
[…] On day 2 or 3, 14 and 28, 200 μl of blood was collected in EDTA tubes from the submandibular vein of each mouse. Plasma was separated using a refrigerated centrifuge (4° C. at 500×g for 10 min) and snap-frozen in dry ice for subsequent ACTH ELISA measurement.

[3] = biological target: T1, biotinylated CRH (Homo sapiens, UniProt P06850); test: Affinity determination with Octet; format: binding
T1 construct: purchased GL Biochem 784751
T1 sequence (P06850 154-194): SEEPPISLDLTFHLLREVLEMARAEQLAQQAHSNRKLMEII
Summary of the method: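 Biolayer interferometry: 30 nM biotinylated CRH loaded onto streptavidin sensors, 2-fold antibody dilutions as analyte in PBS kinetics buffer. Association 180 s, dissociation 800 s, glycine pH 1.5 regeneration; double-referenced data fitted for affinity.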

[4] = test system: mouse CRHR2; test: CRH-induced luciferase reporter blocking assay, CHO-CRE-mCRHR2 cells; format: cell-based; conditions: CHO-CRE-mCRHR2 cells, 5 nM CRH
Summary of the method: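 CHO-CRE cells stably expressing mouse CRHR2 were seeded overnight, then given serially diluted antibodies (8 points, 1:4) together with CRH at 5 nM final. After 4–6 h at 37 °C, CRE-driven luciferase was read by Bio-Glo luminescence.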

IC50 [1]: 2.01 nM | kdis [3]: <1e-07 s⁻¹ | kon [3]: 606000 M⁻¹ s⁻¹ | IC50 [4]: 2.03 nM
B1: PR302334-24: humanized variant of Series 9 mAb PR302334; VH SEQ ID NO: 275, VL SEQ ID NO: 328 (antibody, V domains shown)
VH: EVQLVESGGGLVKPGGSLRLSCAASGFTFSTYAMSWVRQAPGKGLEWVASIRSGGTTYYPDSVKGRFTISRDNAKNSLYLQMNSLRAEDTAVYYCTRGIDWGQGTTVTVSS
VL: DIVMTQSPDSLAVSLGERATINCKASQSVNNDVAWYQQKPGQPPRLLIYYASNRYTGVPDRFSGSGSGTDFTLTISSLQAEDLAVYFCQQDYSSWTFGGGTKVEIK
modifications: PR302334-16 VH, PR302334-24 VH, PR302334-25 VH; PR302334-10 VL, PR302334-24 VL, PR302334-26 VL, PR302334-4 VL
inhibition of ACTH versus SSR125543A ([2]; Mrap1 KO mice): more complete inhibition | efficacy versus SSR125543A, ACTH levels ([2]; Mrap1 KO mice, day 2 and day 14, figure legend, doses not given): superior efficacy | efficacy in reducing plasma ACTH levels versus SSR125543A at 30 mg/kg ([2]; Mrap1 KO mice, mAb 5 mg/kg): more efficacious | efficacy in reducing plasma ACTH levels versus SSR125543A at 30 mg/kg ([2]; Mrap1 KO mice, mAb 10 mg/kg): more efficacious | efficacy in reducing plasma ACTH levels versus SSR125543A at 30 mg/kg ([2]; Mrap1 KO mice, mAb 20 mg/kg): more efficacious | plasma ACTH concentrations in Mrap1 KO mice [2]: significantly reduced

IC50 [1]: 1.24 nM | kdis [3]: <1e-07 s⁻¹ | kon [3]: 329000 M⁻¹ s⁻¹ | IC50 [4]: 1.47 nM
B2: PR302334-26: humanized variant of Series 9 mAb PR302334; VH SEQ ID NO: 277, VL SEQ ID NO: 328 (antibody, V domains shown)
VH: B1 VH with K13Q, A74S
VL: B1 VL
modifications: PR302334-18 VH, PR302334-26 VH, PR302334-27 VH; PR302334-10 VL, PR302334-24 VL, PR302334-26 VL, PR302334-4 VL
plasma ACTH concentrations in Mrap1 KO mice [2]: markedly reduced
